Experimental data reported in patent US20260055195A1 (COUNCIL OF THE QUEENSLAND INSTITUTE OF MEDICAL RESEARCH, published 2026).

T1: EphA3 expressed on tumour cell lines (LK63, U251, D270) (UniProt P29320 21-983)
T1 construct: whole, on cells; also called EphA3 on LK63 cells; EphA3 on U251 cells
T1 sequence (looked up): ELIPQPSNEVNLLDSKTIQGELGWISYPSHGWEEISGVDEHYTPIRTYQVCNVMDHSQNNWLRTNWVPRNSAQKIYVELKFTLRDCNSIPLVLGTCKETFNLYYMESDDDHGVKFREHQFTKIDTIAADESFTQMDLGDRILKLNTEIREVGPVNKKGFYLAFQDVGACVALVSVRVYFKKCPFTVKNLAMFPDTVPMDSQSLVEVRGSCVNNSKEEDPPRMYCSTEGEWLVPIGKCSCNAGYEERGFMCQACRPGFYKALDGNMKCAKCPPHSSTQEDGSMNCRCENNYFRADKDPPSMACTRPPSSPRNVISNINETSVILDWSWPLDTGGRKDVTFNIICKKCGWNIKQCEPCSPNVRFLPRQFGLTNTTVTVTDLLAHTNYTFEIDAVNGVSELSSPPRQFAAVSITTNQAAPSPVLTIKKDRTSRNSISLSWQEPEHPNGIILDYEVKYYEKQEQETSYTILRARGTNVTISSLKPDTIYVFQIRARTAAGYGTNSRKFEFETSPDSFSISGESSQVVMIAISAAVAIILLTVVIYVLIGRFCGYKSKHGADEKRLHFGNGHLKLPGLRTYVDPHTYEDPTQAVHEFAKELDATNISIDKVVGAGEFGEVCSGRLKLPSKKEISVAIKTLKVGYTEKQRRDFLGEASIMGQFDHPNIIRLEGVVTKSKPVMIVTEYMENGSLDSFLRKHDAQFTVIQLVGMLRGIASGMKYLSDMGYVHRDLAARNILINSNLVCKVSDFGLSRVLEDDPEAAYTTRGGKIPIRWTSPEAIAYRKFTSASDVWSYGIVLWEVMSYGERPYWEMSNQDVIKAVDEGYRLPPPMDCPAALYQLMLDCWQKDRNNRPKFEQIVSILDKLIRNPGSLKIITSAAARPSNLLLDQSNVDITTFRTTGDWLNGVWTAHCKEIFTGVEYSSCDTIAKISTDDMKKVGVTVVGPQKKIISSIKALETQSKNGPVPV

B1: Clone 3C3-1 anti-EphA3 monoclonal antibody (antibody, V domains shown)
VH: QVQLQQSGAELARPGASVKMSCKSSGYTFTIYTIHWVKQRPGQGLEWIGYINPSSDYTNYNQKFKDKATLTADKSSTTAYMQLSSLTSEDSAVYYCVREGAYGNYDFAMDYWGQGTSVTVSS
VL: DVLMTQTPLSLPVSLGDQASISCRSSQNIVHNNGNTYLEWYLQKPGQSPKLLIYKVSNRFSGVPDRFSGSGSGTDFTLKISRVEAEDLGVYYCFQTSHVPYTFGGGTKLEIK
notes: Mouse hybridoma monoclonal, screened as subclone supernatant
B2: Clone 2D4-1 anti-EphA3 monoclonal antibody (antibody, V domains shown)
VH: QVHLKESGPGLVAPSQSLSITCTVSGFSLTGYGVNWIRQPPGKNLEWLGMIWGDGSTDYNSVLKSRLSISKDNAKSQVFLEMNSLQTDDTANYYCARDRGISYYYAMDYWGQGTSVTVSS
VL: DIVLTQSPASLAVSLGQRATISCRASKSVSASGYSYLHWYQQKPGQPPKLLIFLAYNLGSGVPARFSGSGAGTDFTLNIHPVEEEDAATYYCQHSREFPLTFGAGTKLELK
notes: as for B1

How the values were obtained:
[1] = molecular target: T1, EphA3 expressed on tumour cell lines …; experiment: flow cytometry on glioma cell lines D270 and U251
[2] = molecular target: T1, EphA3 expressed on tumour cell lines …; experiment: flow cytometry, subclone supernatant on LK63 cells

Binder | binding result [1] | binding result [2]
B1 | binds | 
B2 |  | binds
